Assay results reported in US20160122389A1 (PHARIS BIOTEC, published 2016).
No end group written: not given here.

Legend:
[1] = molecular target: T1, CXC chemokine receptor 4 (CXCR4) (human, UniProt P61073 1-352); test: cell-based or functional assay
[2] = molecular target: T1, CXC chemokine receptor 4 (CXCR4); test: cell-based or functional assay; remark: listed apart in the source
eGFP-CXCR4 = molecular target: T2, eGFP-CXCR4 (UniProt P61073 1-352); test: competition with 100 nM CXCL12-TexasRed on cells expressing eGFP-CXCR4, real-time fluorescence
T2 construct: whole, on cells; not shown: EGFP part of the fusion
Protocol: Experiments were performed using cells stably expressing eGFP-CXCR4, suspended in HEPES-bovine serum albumin buffer (10 mM HEPES, 137.5 mM NaCl, 1.25 mM MgCl₂, 1.25 mM CaCl₂, 6 mM KCl, 10 mM glucose, 0.4 mM NaH₂PO₄, 0.1% bovine serum albumin (w/v), pH 7.4) (typically at 10⁶ cells/mL). Time-based recordings of the fluorescence emitted at 510 nm (excitation at 470 nm) were performed at 21° C. using a spectrofluorimeter and sampled every 0.3 s. Fluorescence binding measurements were initiated by adding at 30 s 100 nM of CXCL12-TR to the 1 mL cell suspension. For competition experiments, EGFP-CXCR4 expressing cells were preincubated for 10 min in the absence or presence of various concentrations of unlabelled drugs. Then, CXCL12-TR (100 nM) was added and fluorescence was recorded until equilibrium was reached (300 s). Data were analyzed using Kaleidagraph 3.08 software (Synergy Software, Reading, Pa., USA).

T1 sequence (P61073 whole entry): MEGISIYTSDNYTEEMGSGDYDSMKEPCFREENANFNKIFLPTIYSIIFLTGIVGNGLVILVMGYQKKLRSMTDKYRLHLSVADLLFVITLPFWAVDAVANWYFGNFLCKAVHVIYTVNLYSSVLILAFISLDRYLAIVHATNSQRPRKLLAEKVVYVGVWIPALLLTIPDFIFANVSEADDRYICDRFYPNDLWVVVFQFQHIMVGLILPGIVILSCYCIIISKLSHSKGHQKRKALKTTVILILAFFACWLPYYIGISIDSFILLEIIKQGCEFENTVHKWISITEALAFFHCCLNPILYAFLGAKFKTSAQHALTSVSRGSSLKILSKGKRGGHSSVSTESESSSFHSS
T2 sequence (P61073 whole entry, the tested form may be a part): as the sequence (P61073 whole entry) above

| Binder | IC50 (µM), blocking of X4 tropic HIV-1 NL4-3 infection [1] | mean 50% inhibitory concentration (IC50) of infection by X4 HIV-1 strains [2] | Ki (eGFP-CXCR4) |
| --- | --- | --- | --- |
| LVRYTKKVPQVST [408-420] | 15.3 µM | – | – |
| LARYTKKV [408-415-V409A] | 32.9 µM | – | – |
| LVRYAKKV [408-415-T412A] | 11.2 µM | – | – |
| IVRWSKKVCQVS [408I-419 WSC03] | 1.51 µM | – | – |
| IVRWCKKVPQVS (also: homodimer, disulfide between Cys of the two monomers) [408I-419 WC03 x2] | 0.6 µM | – | – |
| IVRWTKKVPQVC (also: homodimer, disulfide between Cys of the two monomers) [408I-419 WC01_x2] | 0.4 µM | – | – |
| IVRYTKCVPQVS (also: homodimer, disulfide between Cys of the two monomers) [408I-419 K414C x2] | 1.05 µM | – | – |
| IVRWTCKVPQVS (also: homodimer, disulfide between Cys of the two monomers) [408I-419 WC02 x2] | 0.32 µM | – | – |
| IVRYTKKVPQCS [408I-419 V418C] | 3.69 µM | – | – |
| IVRWSKKVPCVS (also: homodimer, disulfide between Cys10 of two monomers) [408I-419 WSC02 x2] | 0.12 µM | – | – |
| IVRWSKKVPQCS (also: homodimer, disulfide between Cys of the two monomers) [408I-419 WSC01 x2] | 0.18 µM | – | – |
| IVRYTKCVPQVS [408I-419 K414C] | 5.87 µM | – | – |
| LVRYTKKVPQV [408-418] | 26.8 µM | – | – |
| LVRYTKKVPQVSTP [408-421] | 14 µM | – | – |
| LLVRYTKKVPQVS [407-419] | 11.1 µM | – | – |
| IVRYTKKVPQVS [408I-419] | 2.48 µM | – | – |
| IVHYTKKVPQVS [408I-419 R410H] | > 100 µM | – | – |
| IVRWSKKVPCVS [408I-419 WSC02] | 0.31 µM | – | – |

| Binder | IC50 (µM), blocking of X4 tropic HIV-1 NL4-3 infection [1] | mean 50% inhibitory concentration (IC50) of infection by X4 HIV-1 strains [2] | Ki (eGFP-CXCR4) |
| --- | --- | --- | --- |
| IVRYSKKVPQC [408I-418 SC] | 2.94 µM | – | – |
| IVRYTKKVPQCS (also: homodimer, disulfide between Cys of the two monomers) [408I-419 V418C x2] | 0.46 µM | – | – |
| LVRYTKKVPQVSTPTL (Chemically synthesized fragment of human serum albumin (HSA)) [peptide of SEQ ID NO 16 (408-423)] | 8.63 µM | 15.8 µg/mL | 3000 nM |
| LVRYTKKVPQ [408-417] | 19.8 µM | – | – |
| IVRSTKKVPQVS [408I-419 Y411S] | > 100 µM | – | – |
| LVRYTKKV [408-415] | 25.7 µM | – | – |
| IVRWTKKVPQVC [408I-419 WC01] | 1.65 µM | – | – |
| IVRYSKKVPQVS [408I-419 T412S] | 2.09 µM | – | – |
| IVRWCKKVPQVS [408I-419 WC03] | 1.82 µM | – | – |
| IVKYTKKVPQVS [408I-419 R410K] | > 100 µM | – | – |
| IVRFTKKVPQVS [408I-419 Y411F] | 3.89 µM | – | – |
| IVRWSKKVPQCS [408I-419 WSC01] | 0.87 µM | – | – |
| IVRWTKKVPQVS [408I-419 Y411W] | 1.54 µM | – | – |
| LVRYTKKVPQVSTPT [408-422] | 13.4 µM | – | – |
| IVRWTCKVPQVS [408I-419 WC02] | 2.1 µM | – | – |
| LVRYTKKVPQVS [408-419] | 5.49 µM | – | – |
| IVRYSKKVPQC (also: homodimer, disulfide between Cys of the two monomers) [408I-418 SC x2] | 0.39 µM | – | – |
